Source: US20160137713A1 (HANALL BIOPHARMA, published 2016)

Tests used:
soluble human FcRn = target: T1, soluble human FcRn (human, UniProt P55899 24-297; P61769 21-119); assay: SPR, shFcRn immobilised, pH 6.0
T1 construct: extracellular domain;mature; Non-covalent heterodimer secreted by 293 cells, purified on IgG Sepharose; also called shFcRn; soluble FcRn
Protocol: Measurement of the binding ability of antibody by SPR was performed by immobilizing shFcRn as a ligand onto a Proteon GLC chip (Bio-Rad) and measuring affinity.
The analysis of ligand and analyte was performed using a Proteon GLC chip, and the interaction was analyzed at a pH of 6.0 and a pH of 7.4. Immobilization of the ligand was activated by injecting a 1:1 mixture of 1×EDAC (EDC) and 1× Surfo-NHS for 5 minutes. shFcRn was diluted in 10 mM sodium acetate (pH 4.5) at a concentration of 25 μg/ml and added to the ligand at a flow rate of 30 μl/min for 5 minutes. […] The analyte antibody was allowed to flow on the immobilized chip at a flow rate of 30 μl/min. […] The association time of the analyte antibody was 240 seconds, and the dissociation time was 600 seconds. Regeneration of the chip was performed by injecting 10 mM glycine (pH 2.5) at a flow rate of 100 μl/min for 18 seconds. Based on sensorgrams resulting from six concentrations of the analyte, kinetics analysis was performed using Proteon XPR36 software.

[1] = target: T2, mouse FcRn on 3T3-L1 cells (mouse, UniProt Q61559 22-365; P01887 21-119); assay: FACS on mouse FcRn-expressing 3T3-L1 cells at pH 6.0 and pH 7.4, FITC anti-human IgG goat antibody; MFI relative to hIgG
T2 construct: whole, on cells; also called NIH3T3L1
T2 sequence (looked up): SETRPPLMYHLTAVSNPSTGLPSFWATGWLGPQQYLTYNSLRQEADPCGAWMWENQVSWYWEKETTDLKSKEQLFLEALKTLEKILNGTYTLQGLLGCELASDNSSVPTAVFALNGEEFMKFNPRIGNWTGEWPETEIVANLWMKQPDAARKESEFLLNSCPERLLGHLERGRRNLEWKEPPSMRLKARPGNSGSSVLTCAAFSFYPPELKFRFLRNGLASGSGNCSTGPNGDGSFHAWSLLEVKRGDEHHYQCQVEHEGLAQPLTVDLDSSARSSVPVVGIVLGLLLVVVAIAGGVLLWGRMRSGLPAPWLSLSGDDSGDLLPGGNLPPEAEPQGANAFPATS
T2 sequence (b2m, looked up): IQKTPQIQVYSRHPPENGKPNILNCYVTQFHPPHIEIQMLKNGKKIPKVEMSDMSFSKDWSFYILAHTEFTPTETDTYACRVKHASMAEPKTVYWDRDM
Protocol: 3T3-L1 cells stably expressing mouse FcRn were cultured in 10% FCS DMEM medium, and then detached from the culture plate by trypsin treatment. The cells were washed three times with cold binding buffer (PBS, pH 6.0 10 mM EDTA), and then diluted in binding buffer at a concentration of 10⁵ cells/ml. 100 μl of the cell dilution was dispensed into each 1.5-ml tube in such a manner that each tube contained 10⁴ cells, and 1 μl of HL161 antibody (1 mg/ml) was added to the dispensed cells. Next, the cells were incubated on ice. As control antibodies, 1 μl of each of rabbit antibody (Santacruz, sc-66893) and human IgG (Abcam, cat#. 409120), which bind to mouse FcRn, was used. The cells were recovered by centrifugation at 4° C. and 4000 rpm for 5 minutes, after which the cells were washed once with binding buffer and resuspended in 100 μl of binding buffer. As FITC-conjugated secondary antibody, 1 μl of anti-human IgG goat antibody (Invitrogen, Cat*. A11013) was added to the cells. In the case of the experiment using anti-mouse FcRn rabbit antibody, the anti-rabbit antibody was incubated with the cells on ice for 1 hour, and then the cells were recovered by centrifugation at 4° C. and 700 g for 5 minutes, washed once with binding buffer, resuspended in 400 ul of binding buffer and analyzed by FACS to examine the cross-reactivity of the HL161 antibodies with mouse FcRn (see FIG. 4). An experiment at a pH of 7.4 was performed using binding buffer at a pH of 7.4 in the same manner as the experiment using binding buffer at a pH of 6.0. The degree of the binding of each antibody to mouse FcRn was presented as relative MFI based on human IgG.

[2] = target: T3, human FcRn on HEK293 cells (human, UniProt P55899 24-365; P61769 21-119); assay: FACS competition on hFcRn HEK293 cells at pH 6.0; remaining binding of 100 nM Alexa488-labeled hIgG1 (m14) with 1000 nM competitor antibody, percent of the tube without competitor
T3 construct: whole, on cells; also called hFcRn
Protocol: In stable HEK293 cells expressing human FcRn, the blocking of the antibody against FcRn was analyzed by FACS. The antibody was diluted in binding buffer (PBS pH 6.0, 10 mM EDTA) at concentrations of 2,000 nM, […] to make 50 μl of dilutions, which were dispensed into tubes. […] Stable HEK293 cells were diluted in binding buffer at a concentration of 2,500,000 cells/ml, and 40 μl of the cell dilution was added to each of the labeled antibody-containing tubes. Thus, a final volume of 100 μl contained 100,000 cells, 100 nM labeled antibody and 1000 nM, 500 nM or 250 nM competitor antibody. The cells were washed once with 150 μl of buffer (pH 6.0), and pellets were obtained therefrom and resuspended in 150 μl of buffer having pH difference. The suspension was transferred into a tube for FACS analysis. The cells were analyzed by FACS using BD FACSDiva™ v6.1.3 software (BD Bioscience). The results of the analysis were expressed as mean fluorescence intensity (MFI).
The MFI of the test group was processed after subtracting the MFI (background signal) measured in cells alone.

koff (soluble human FcRn): 0.00034 s⁻¹ | kon (soluble human FcRn): 970000 M⁻¹ s⁻¹ | binding result [1]: no binding | Relative MFI(%) at 1000nM [2]: 51.8%
B1: HL161-11H (antibody, V domains shown)
VH: QMQLVESGGGLVQPGRSLRLSCAASGFTFSSYAMHWVRQAPGKGLEWVAVISYDGSNKYYADSVKGRFTISRDNSKNTLYLQMNSLRSEDTAVYYCSRGSGGRDAFDVWGQGTMITVSS
VL: DIQMTQSPSTLSASVGDRVTITCRASQSISSRLAWYQQKPGKAPKLLIYKASSLETGVPSRFSGSGSGTEFTLTISSLQPDDFATYYCQQTNSFPLTFGGGTKVEIK
notes: Whole human IgG from pNATAB vectors
